# Publication PMC9352680, “A comprehensive thermodynamic model for RNA binding by the Saccharomyces cerevisiae Pumilio protein PUF4”
# Substitutions are numbered along the chain they refer to. In names and notes the source's numbering stands.
# T1: PUF4 RNA-binding domain (Saccharomyces cerevisiae, UniProt P25339 537-888)
# T1 sequence: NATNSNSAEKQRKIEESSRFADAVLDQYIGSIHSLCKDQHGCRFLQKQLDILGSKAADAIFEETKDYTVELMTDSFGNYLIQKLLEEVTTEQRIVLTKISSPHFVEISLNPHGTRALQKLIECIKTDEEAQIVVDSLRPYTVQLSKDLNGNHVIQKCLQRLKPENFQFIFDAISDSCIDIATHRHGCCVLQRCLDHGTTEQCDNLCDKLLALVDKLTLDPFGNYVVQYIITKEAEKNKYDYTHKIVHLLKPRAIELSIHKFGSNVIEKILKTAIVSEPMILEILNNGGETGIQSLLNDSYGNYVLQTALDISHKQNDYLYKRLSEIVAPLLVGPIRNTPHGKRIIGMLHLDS
# B1: Ic_S2_P5E.1_K5.1_C5.1_H5.1_A5.1_[T6C]_[A7C]_F5.1_[T8G]_[T9C]_[A10T]_T5.1 (ssRNA)
# RNA: UUUGAUUAAUAUGAUAUCGUUCUUUCUUGUAUCCGCUUUCUUUCUCGAUAUCAUAUUAAUCUUU
# B2: Ic_S2_P5E.1_K5.1_C5.1_H5.1_A5.1_[T6A]_[A7T]_F5.1_[T8C]_[T9G]_[A10C]_T5.1 (ssRNA)
# RNA: B1 RNA with C33A, C34U, G35C, C36G, U37C
# B3: Ic_S2_P5E.1_K5.1_C5.1_H5.1_A5.1_[T5G]_F5.1_[T8A]_[T9A]_T5.1 (ssRNA)
# RNA: B1 RNA with U32G, C33U, C34A, G35A, C36A, U37A
# B4: Ic_S2_P5E.1_K5.1_C5.1_H5.1_A5.1_[T6G]_[A7T]_F5.1_[T8C]_[T9A]_[A10C]_T5.1 (ssRNA)
# RNA: B1 RNA with C33G, C34U, G35C, C36A, U37C
# B5: Ic_S2_P5E.1_K5.1_C5.1_H5.1_A5.1_[T5A]_[A7C]_F5.1_[T8C]_[T9C]_T5.1 (ssRNA)
# RNA: B1 RNA with U32A, C33U, G35C, U37A
# B6: Ic_S2_P5E.1_K5.1_C5.1_H5.1_A5.1_[A7C]_F5.1_[T8C]_[T9C]_[A10T]_T5.1 (ssRNA)
# RNA: B1 RNA with C33U, G35C
# B7: Ic_S2_P5E.1_K5.1_C5.1_H5.1_A5.1_[T6C]_F5.1_[T8A]_[T9A]_[A10C]_T5.1 (ssRNA)
# RNA: B1 RNA with C34A, G35A, C36A, U37C
# B8: Ic_S2_P5E.1_K5.1_C5.1_H5.1_A5.1_[T5C]_[T6A]_[A7T]_F5.1_[T8G]_[T9G]_[A10T]_T5.1 (ssRNA)
# RNA: B1 RNA with U32C, C33A, C34U, C36G
# B9: Ic_S2_P5E.1_K5.1_C5.1_H5.1_A5.1_[T5A]_[A7C]_F5.1_[T8A]_[T9C]_[A10C]_T5.1 (ssRNA)
# RNA: B1 RNA with U32A, C33U, G35A, U37C
# B10: Ic_S2_P5E.1_K5.1_C5.1_H5.1_A5.1_F5.1_[T8C]_[T9A]_[A10T]_T5.1 (ssRNA)
# RNA: B1 RNA with C33U, C34A, G35C, C36A
# B11: Ic_S2_P5E.1_K5.1_C5.1_H5.1_A5.1_[T5C]_[T6A]_[A7G]_F5.1_[T8C]_[T9C]_T5.1 (ssRNA)
# RNA: B1 RNA with U32C, C33A, C34G, G35C, U37A
# B12: Ic_S2_P4E.1_K4.1_C4.1_H4.1_A4.1_[A6C]_[T7A]_F4.1_[T8C]_[A9T]_T4.1 (ssRNA)
# RNA: UUUGAUUAAUAUGAUAUCGUUCUUUCUUGUAUCACUUUCUUUCUCGAUAUCAUAUUAAUCUUU
# B13: Ic_S2_P4E.1_K4.1_C4.1_H4.1_A4.1_[A6T]_[T7G]_F4.1_[A9C]_T4.1 (ssRNA)
# RNA: B12 RNA with C33U, A34G, C35U, U36C
# B14: Ic_S2_P4E.1_K4.1_C4.1_H4.1_A4.1_[A6T]_[T7G]_F4.1_[A9T]_T4.1 (ssRNA)
# RNA: B12 RNA with C33U, A34G, C35U
# B15: Ic_S2_P4E.1_K4.1_C4.1_H4.1_A4.1_[A6C]_F4.1_[T8C]_[A9G]_T4.1 (ssRNA)
# RNA: B12 RNA with A34U, U36G
# B16: Ic_S2_P4E.1_K4.1_C4.1_H4.1_A4.1_[A6T]_[T7G]_F4.1_[T8C]_T4.1 (ssRNA)
# RNA: B12 RNA with C33U, A34G, U36A
# B17: Ic_S2_P4E.1_K4.1_C4.1_H4.1_A4.1_[A6T]_[T7A]_F4.1_[T8G]_[A9C]_T4.1 (ssRNA)
# RNA: B12 RNA with C33U, C35G, U36C
# B18: Ic_S2_P4E.1_K4.1_C4.1_H4.1_A4.1_[A6T]_[T7A]_F4.1_[T8C]_[A9G]_T4.1 (ssRNA)
# RNA: B12 RNA with C33U, U36G
# B19: Ic_S2_P4E.1_K4.1_C4.1_H4.1_A4.1_[A6C]_[T7A]_F4.1_[T8A]_[A9C]_T4.1 (ssRNA)
# RNA: B12 RNA with C35A, U36C
# B20: Ic_S2_P4E.1_K4.1_C4.1_H4.1_A4.1_[A6T]_F4.1_[T8A]_[A9T]_T4.1 (ssRNA)
# RNA: B12 RNA with C33U, A34U, C35A
# B21: Ic_S2_P4E.1_K4.1_C4.1_H4.1_A4.1_[A6T]_[T7G]_F4.1_[T8G]_[A9T]_T4.1 (ssRNA)
# RNA: B12 RNA with C33U, A34G, C35G
# B22: Ic_S2_P4E.1_K4.1_C4.1_H4.1_A4.1_[A6T]_F4.1_[T8C]_[A9T]_T4.1 (ssRNA)
# RNA: B12 RNA with C33U, A34U
# B23: Ic_S2_P4E.1_K4.1_C4.1_H4.1_A4.1_[T7G]_F4.1_[T8C]_[A9C]_T4.1 (ssRNA)
# RNA: B12 RNA with C33A, A34G, U36C
# B24: Ic_S2_P4E.1_K4.1_C4.1_H4.1_A4.1_[A6C]_[T7A]_F4.1_[T8C]_T4.1 (ssRNA)
# RNA: B12 RNA with U36A
# B25: Ic_S2_P4E.1_K4.1_C4.1_H4.1_A4.1_[A6T]_F4.1_[T8C]_[A9C]_T4.1 (ssRNA)
# RNA: B12 RNA with C33U, A34U, U36C
# B26: Ic_S2_P4E.1_K4.1_C4.1_H4.1_A4.1_[A6T]_[T7A]_F4.1_[A9G]_T4.1 (ssRNA)
# RNA: B12 RNA with C33U, C35U, U36G
# Biological target: T1, PUF4 RNA-binding domain
# Test: Mg; RNA-MaP; 20 mM Na-HEPES pH 7.4, 30 mM KOAc, 0.75 mM MgCl2, 0.1% Tween-20, 5% glycerol, 0.1 mg/mL BSA, 2 mM DTT; 25 C; 0.0125-409.6 nM protein
# Conditions: tags: N-His6-TEV cleaved; C-SNAP kept, Cy3B-labelled; label: tethered on chip by stalled RNA polymerase
row,Binder,Kd [nM]
1,UCUCUUUAUAUAUGAUCUCUU (ssRNA) [Ib_S1_P4E.1_K4.1_C4.1_H4.1_[G2A]_A4.1_F4.1_[T8G]_T4.1],> 2300
2,UCUCUUUGUAUAUCUUCUCUU (ssRNA) [Ib_S1_P4E.1_K4.1_C4.1_H4.1_A4.1_F4.1_[T8C]_[A9T]_T4.1],13.4
3,B1,596
4,B2,21.9
5,B3,656
6,B4,293
7,B5,669
8,B6,142
9,B7,170
10,B8,45.8
11,B9,545
12,B10,444
13,B11,119
14,UCUCUUUGUAUAUACUCUCUU (ssRNA) [Ib_S1_P4E.1_K4.1_C4.1_H4.1_A4.1_F4.1_[T8A]_[A9C]_T4.1],8.2
15,B12,76.1
16,B13,127
17,B14,57
18,B15,23.6
19,B16,742
20,B17,685
21,B18,93.7
22,B19,309
23,B20,9.81
24,B21,1200
25,B22,21.7
26,B23,53.8
27,B24,347
28,B25,52.7
29,B26,4.55
